Experimental findings from the FLAb antibody collection (doi:10.7554/elife.23156) are described below.

The chains are these.
B1: scFv; the commonest letter at each place (parent)
chain 1: EVKLDETGGGLVQPGRPMKLSCVASGFTFSDYWMNWVRQSPEKGLEWVAQIRNKPYNYETYYSDSVKGRFTISRDDSKSSVYLQMNNLRVEDMGIYYCTGSYYGMDYWGQGTSVTVS
chain 2: DVVMTQTPLSLPVSLGDQASISCRSSQSLVHSNGNTYLRWYLQKPGQSPKVLIYKVSNRFSGVPDRFSGSGSGTDFTLKISRVEAEDLGVYFCSQSTHVPWTFGGGTKLEIK

Bounds are passed on as bounds.

The variants in series [1] derive from B1. As to the kind of experiment: Kd (Tite-Seq). The conditions noted are these: with fluorescein; format: scFv 4-4-20, heavy + light.
Series [2] covers variants of B1. As to the kind of experiment: yeast surface expression (ratio to wild type); higher = more expressed. The conditions noted are these: format: scFv 4-4-20, heavy + light.

Turning to chain 1 S30I D31H W33C, the Kd in series [1] is ≥ 10 µM. Moreover, the yeast surface expression in series [2] is 0.449.

For chain 1 S30F N35T W36P, in series [1], the Kd was ≥ 10 µM. Also, the yeast surface expression in series [2] was found to be 1.41.

Consider chain 1 S30G N35P W36F, for which the Kd in series [1] was ≥ 10 µM. In addition, the yeast surface expression in series [2] came to 0.718.

As for chain 1 S30P N35G, the Kd in series [1] was found to be 0.00468 µM. For the same variant, in series [2], the yeast surface expression was 1.19.

chain 1 S30P N35L: in series [1], the Kd was ≥ 10 µM. Moreover, the yeast surface expression in series [2] was 0.652.

For the variant chain 1 S30P N35V, the Kd in series [1] is ≥ 10 µM. Moreover, the yeast surface expression in series [2] is 0.636.

Consider chain 1 S30M Y32H, for which, in series [1], the Kd was 0.0729 µM. Besides, the yeast surface expression in series [2] came out at 0.872.

chain 1 S30M Y32R: the Kd in series [1] was determined as 4.84 µM. In series [2], the yeast surface expression was 0.465.

Consider chain 1 S30K N35I, for which the Kd in series [1] was ≥ 10 µM. For the same variant, the yeast surface expression in series [2] was 0.879.

Take chain 1 S30K N35G: in series [1], the Kd is 0.0162 µM. In addition, the yeast surface expression in series [2] amounted to 1.03.

On to chain 1 S30Q D31E N35K, for which the Kd in series [1] is ≥ 10 µM. Also, the yeast surface expression in series [2] came out at 2.59.

Turning to chain 1 N35H V37Y, in series [1], the Kd was ≥ 10 µM. Further, the yeast surface expression in series [2] was 0.779.

As to chain 1 S30N W33D, in series [1], the Kd is ≥ 10 µM. The yeast surface expression in series [2] was 1.05.

On to chain 1 S30N W33M, for which the Kd in series [1] was ≥ 10 µM. Further, the yeast surface expression in series [2] was found to be 0.879.

For the variant chain 1 S30P W33P, in series [1], the Kd was ≥ 10 µM. Further, in series [2], the yeast surface expression is 0.628.

Take chain 1 S30P W33E: in series [1], the Kd is ≥ 10 µM. Moreover, the yeast surface expression in series [2] was found to be 1.01.

For chain 1 S30R V37M, the Kd in series [1] was ≤ 0.000316 µM. Also, the yeast surface expression in series [2] is 1.02.

In the case of chain 1 N35V V37Y, the Kd in series [1] is ≥ 10 µM. Further, the yeast surface expression in series [2] came out at 0.727.

Turning to chain 1 S30E M34W N35M, the Kd in series [1] is ≥ 10 µM. Besides, the yeast surface expression in series [2] was 0.493.

Turning to chain 1 S30I N35P, the Kd in series [1] is ≥ 10 µM. Moreover, the yeast surface expression in series [2] amounted to 0.35.

Turning to chain 1 S30N M34I, the dissociation constant Kd in series [1] came out at 0.00293 µM. Moreover, in series [2], the yeast surface expression was determined as 0.954.

On to chain 1 S30T N35Q, for which the Kd in series [1] is ≥ 10 µM. The yeast surface expression in series [2] was 0.831.

On to chain 1 N35S W36Y, for which, in series [1], the Kd is ≥ 10 µM. Also, the yeast surface expression in series [2] was 0.787.

For the variant chain 1 S30A W33N, in series [1], the Kd is ≥ 10 µM. Further, the yeast surface expression in series [2] came to 0.914.

As for chain 1 S30H N35E, the Kd in series [1] was ≥ 10 µM. The yeast surface expression in series [2] came out at 0.504.

With chain 1 S30H N35D, the dissociation constant Kd in series [1] is ≥ 10 µM. For the same variant, the yeast surface expression in series [2] worked out at 0.828.

chain 1 S30C V37D: the Kd in series [1] was found to be 2.01 µM. Moreover, in series [2], the yeast surface expression is 1.73.

chain 1 N35K W36F: in series [1], the dissociation constant Kd is ≥ 10 µM. In series [2], the yeast surface expression came to 0.453.

Take chain 1 S30C Y32V: in series [1], the Kd was ≥ 10 µM. For the same variant, the yeast surface expression in series [2] stood at 0.7.

Regarding chain 1 S30C W33I, in series [1], the Kd is ≥ 10 µM. For the same variant, in series [2], the yeast surface expression was 0.877.

chain 1 S30C W33L: the Kd in series [1] was ≥ 10 µM. Besides, the yeast surface expression in series [2] came to 0.696.

With chain 1 S30C W33Y, the Kd in series [1] is ≥ 10 µM. The yeast surface expression in series [2] is 1.04.

chain 1 N35H W36L: in series [1], the Kd is ≥ 10 µM. In addition, the yeast surface expression in series [2] was found to be 0.718.

Turning to chain 1 N35H W36S, the dissociation constant (Kd) in series [1] is ≥ 10 µM. In series [2], the yeast surface expression amounted to 0.692.

chain 1 S30I W36P V37E: the Kd in series [1] was ≥ 10 µM. Further, the yeast surface expression in series [2] is 0.93.

With chain 1 S30F M34C, the dissociation constant Kd in series [1] was 4.14 µM. For the same variant, the yeast surface expression in series [2] stood at 0.514.

In the case of chain 1 S30F M34Y, the equilibrium dissociation constant (Kd) in series [1] was found to be 0.00871 µM. Further, the yeast surface expression in series [2] worked out at 0.762.

Consider chain 1 S30F M34E, for which, in series [1], the Kd is ≤ 0.000316 µM. For the same variant, the yeast surface expression in series [2] is 0.0981.

On to chain 1 S30D V37P, for which the Kd in series [1] was ≥ 10 µM. Besides, in series [2], the yeast surface expression was determined as 0.55.

For the variant chain 1 S30D V37F, in series [1], the Kd amounted to 4.37 µM. The yeast surface expression in series [2] worked out at 0.942.

Consider chain 1 S30M D31S, for which, in series [1], the Kd turned out to be 0.00265 µM. Moreover, the yeast surface expression in series [2] came out at 0.671.

Take chain 1 S30M D31F: the Kd in series [1] is 5.66 µM. In addition, in series [2], the yeast surface expression stood at 0.611.

Turning to chain 1 N35C W36F, in series [1], the Kd is ≥ 10 µM. In addition, in series [2], the yeast surface expression is 0.644.

For chain 1 S30N Y32S, the dissociation constant Kd in series [1] was determined as 0.0146 µM. The yeast surface expression in series [2] was 1.14.

As for chain 1 S30N N35T, in series [1], the dissociation constant (Kd) is ≥ 10 µM. The yeast surface expression in series [2] turned out to be 0.803.

Turning to chain 1 S30N N35E, the Kd in series [1] was ≥ 10 µM. Besides, the yeast surface expression in series [2] was determined as 0.697.

Consider chain 1 S30N N35W, for which the Kd in series [1] is ≥ 10 µM. The yeast surface expression in series [2] was found to be 0.529.

With chain 1 S30N V37W, in series [1], the Kd is ≥ 10 µM. The yeast surface expression in series [2] is 0.654.

Take chain 1 S30M V37E: the Kd in series [1] came out at 0.0107 µM. Further, the yeast surface expression in series [2] amounted to 0.721.

chain 1 S30M V37M: the Kd in series [1] was found to be 0.000504 µM. Moreover, in series [2], the yeast surface expression turned out to be 0.887.

chain 1 S30I W36V V37Q: the Kd in series [1] is ≥ 10 µM. The yeast surface expression in series [2] was 0.525.

Regarding chain 1 S30F V37M, the Kd in series [1] worked out at 0.00128 µM. The yeast surface expression in series [2] stood at 0.669.

As for chain 1 N35R W36R, the Kd in series [1] is ≥ 10 µM. Further, the yeast surface expression in series [2] was found to be 0.425.

As for chain 1 N35R W36K, the Kd in series [1] was ≥ 10 µM. Further, in series [2], the yeast surface expression worked out at 2.76.

On to chain 1 N35R W36P, for which the Kd in series [1] was ≥ 10 µM. For the same variant, the yeast surface expression in series [2] is 0.809.

With chain 1 S30A M34L, the Kd in series [1] turned out to be 0.00115 µM. In addition, the yeast surface expression in series [2] was determined as 1.1.

As for chain 1 S30A M34C, the Kd in series [1] turned out to be 0.00104 µM. Besides, in series [2], the yeast surface expression is 0.868.

As for chain 1 S30A M34Y, in series [1], the Kd was found to be 0.00361 µM. In addition, the yeast surface expression in series [2] is 0.977.

A word on the Kd: it is the free concentration of one partner at which half of the binding sites on the other are occupied at equilibrium, for simple one-to-one binding.
